Test results as given in PMC8685725 (Proceedings of the National Academy of Sciences of the …, 2021).

Tests used:
[1] = molecular target: T1, GFP-linked full-length hnRNPH1 (amino acids 2 through 449) (human (cDNA library from HEK-293T cells), UniProt P31943 2-449); test: hydrogel-binding assay
T1 sequence: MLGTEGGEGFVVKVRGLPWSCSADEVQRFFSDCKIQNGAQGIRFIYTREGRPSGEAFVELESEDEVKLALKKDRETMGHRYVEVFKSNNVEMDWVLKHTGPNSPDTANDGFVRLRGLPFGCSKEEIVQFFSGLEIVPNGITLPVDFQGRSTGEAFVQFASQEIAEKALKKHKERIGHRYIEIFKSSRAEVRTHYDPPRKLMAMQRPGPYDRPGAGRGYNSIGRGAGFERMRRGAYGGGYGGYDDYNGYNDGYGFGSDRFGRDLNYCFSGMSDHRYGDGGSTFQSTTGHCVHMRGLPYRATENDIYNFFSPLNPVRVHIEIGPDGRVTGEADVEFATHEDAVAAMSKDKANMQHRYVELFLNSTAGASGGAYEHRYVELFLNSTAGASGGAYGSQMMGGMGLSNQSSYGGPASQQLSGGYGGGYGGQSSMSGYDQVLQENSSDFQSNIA

[2] = molecular target: T2, GFP:hnRNPH1-LC1, His tag cleaved, as liquid-like droplets (human (cDNA library from HEK-293T cells), UniProt P31943 192-280); test: LLD incorporation assay
T2 sequence: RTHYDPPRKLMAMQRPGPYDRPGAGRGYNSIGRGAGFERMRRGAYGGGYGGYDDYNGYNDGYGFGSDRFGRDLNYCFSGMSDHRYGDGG

B1: mCherry-linked C-terminal half of hnRNPH1 (amino acids 192 through 449), as hydrogel droplets or polymers (domain or fragment)
chain: RTHYDPPRKLMAMQRPGPYDRPGAGRGYNSIGRGAGFERMRRGAYGGGYGGYDDYNGYNDGYGFGSDRFGRDLNYCFSGMSDHRYGDGGSTFQSTTGHCVHMRGLPYRATENDIYNFFSPLNPVRVHIEIGPDGRVTGEADVEFATHEDAVAAMSKDKANMQHRYVELFLNSTAGASGGAYEHRYVELFLNSTAGASGGAYGSQMMGGMGLSNQSSYGGPASQQLSGGYGGGYGGQSSMSGYDQVLQENSSDFQSNIA
[1]
  binding result: binds

B2: mCherry-linked LC1 domain of hnRNPH1 (amino acids 192 through 280), His tag cleaved (domain or fragment)
chain: T2 sequence
[2]
  binding result: binds
